Molecular target: Pyruvate kinase M2 (mouse (endogenous in RAW264.7)) (UniProt P52480)
Assay: not stated; PKM2 tetramer in LPS-treated RAW264.7 cells with celastrol (Fig. S4); method not given

Sequence of Pyruvate kinase M2, P52480 1-531 (enzyme; other documents disagree on this pair) (P52480 whole entry): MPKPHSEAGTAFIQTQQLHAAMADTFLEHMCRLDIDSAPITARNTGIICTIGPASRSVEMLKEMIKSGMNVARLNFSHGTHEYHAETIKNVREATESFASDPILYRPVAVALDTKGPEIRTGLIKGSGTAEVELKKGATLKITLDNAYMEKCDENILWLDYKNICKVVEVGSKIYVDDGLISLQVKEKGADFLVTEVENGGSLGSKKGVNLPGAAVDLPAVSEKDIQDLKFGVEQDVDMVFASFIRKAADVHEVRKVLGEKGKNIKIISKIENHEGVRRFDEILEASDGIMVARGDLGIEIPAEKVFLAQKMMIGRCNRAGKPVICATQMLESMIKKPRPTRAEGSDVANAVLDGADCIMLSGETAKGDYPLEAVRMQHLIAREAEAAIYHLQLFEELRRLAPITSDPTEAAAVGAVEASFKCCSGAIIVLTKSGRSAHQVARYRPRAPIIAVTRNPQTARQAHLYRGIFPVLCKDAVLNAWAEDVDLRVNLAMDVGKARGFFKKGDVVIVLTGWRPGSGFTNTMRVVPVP

stoichiometry N: 4
Substance: Pyruvate kinase M2, P52480 1-531 (enzyme; other documents disagree on this pair)
